Assay results taken from the supplement of paper PMC10724198.
± gives the standard deviation of the averaged measurements.

Columns and labels:
Saccharomyces cerevisiae [1] = assay: protein stability index of tFT-peptide fusion (C-terminal peptide) (PSI (0-1 scale)); higher = more stable (slower turnover); settings: genetic background: wild type; temperature: 30 C
Saccharomyces cerevisiae [2] = assay: as above
Protocol: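 MPS profiling in S. cerevisiae of the tFT-X12 degron library: putative degron peptides plus stable controls, 12 aa, fused to the C-terminus of a sfGFP-mCherry timer. Cells are FACS-sorted into 8 mCherry/sfGFP bins and deep-sequenced. PSI runs from 0 (unstable) to 1 (stable). Backgrounds are wild type, das1Δ and doa10Δ at 30 °C, and wild type, das1Δ, cdc34-1 and cdc53-1 at 37 °C; 2-3 technical replicates each.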

[3] = genetic background: cdc34-1, temperature: 37 C
[4] = genetic background: cdc53-1, temperature: 37 C
[5] = genetic background: das1 deletion, temperature: 30 C
[6] = genetic background: das1 deletion, temperature: 37 C
[7] = genetic background: doa10 deletion, temperature: 30 C
[8] = genetic background: wild type, temperature: 30 C
[9] = genetic background: wild type, temperature: 37 C
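Further: PSI is a weighted mean of sequencing reads over stability bins, variants kept only with over 10 reads, mCherry proximal and sfGFP distal, peptide attached via GGGS linker.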

Row | Sequence | protein stability index (Saccharomyces cerevisiae [1]) | protein stability index (Saccharomyces cerevisiae [2]; [3]) | protein stability index (Saccharomyces cerevisiae [2]; [4]) | protein stability index (Saccharomyces cerevisiae [2]; [5]) | protein stability index (Saccharomyces cerevisiae [2]; [6]) | protein stability index (Saccharomyces cerevisiae [2]; [7]) | protein stability index (Saccharomyces cerevisiae [2]; [8]) | protein stability index (Saccharomyces cerevisiae [2]; [9])
1 | FRFSCLFSLFLS | 0.224 ± 0.011 | 0.413 ± 0.072 | 0.499 ± 0.01 | 0.478 ± 0.029 | 0.5168 ± 0.0051 | 0.169 ± 0.0091 | 0.143 ± 0.036 | 0.24 ± 0.025
2 | LLCSLGFRFSLF | 0.377 ± 0.034 | 0.651 ± 0.033 | 0.728 ± 0.011 | 0.651 ± 0.019 | 0.725 ± 0.019 | 0.289 ± 0.0056 | 0.328 ± 0.044 | 0.546 ± 0.038
3 | FVMTYCLMSVSK | 0.0465 ± 0.035 | 0.0323 ± 0.018 | 0.0364 ± 0.002 | 0.0746 ± 0.02 | 0.0531 ± 0.038 | 0.063 ± 0.0057 | 0.07 ± 0.016 | 0.0478 ± 0.025
4 | VYVRYYVRVVVI | 0.115 ± 0.012 | 0.0256 ± 0.0012 | 0.0406 ± 0.00046 | 0.0781 ± 0.04 | 0.167 ± 0.024 | 0.0369 ± 0.0049 | 0.046 ± 0.016 | 0.0659 ± 0.0096
5 | SLCSRLVVVAWF | 0.494 ± 0.024 | 0.531 ± 0.017 | 0.599 ± 0.026 | 0.432 ± 0.026 | 0.608 ± 0.014 | 0.374 ± 0.035 | 0.386 ± 0.0062 | 0.553 ± 0.026
6 | VGAVGVCILFVW | 0.35 ± 0.038 | 0.203 ± 0.0086 | 0.356 ± 0.014 | 0.242 ± 0.044 | 0.424 ± 0.0061 | 0.195 ± 0.016 | 0.232 ± 0.042 | 0.43 ± 0.013
7 | SCLSYRTRLLAF | 0.49 ± 0.0059 | 0.52 ± 0.045 | 0.617 ± 0.011 | 0.477 ± 0.019 | 0.587 ± 0.0083 | 0.406 ± 0.0086 | 0.41 ± 0.014 | 0.504 ± 0.011
8 | GMGHLSNVCLKT | 0.597 ± 0.17 | 0.689 ± 0.008 | 0.765 ± 0.0086 | 0.639 ± 0.012 | 0.726 ± 0.0093 | 0.636 ± 0.026 | 0.645 ± 0.019 | 0.706 ± 0.027
9 | PPAPTPFPPSPR | 0.593 ± 0.14 | 0.687 ± 0.037 | 0.7216 ± 0.0033 | 0.669 ± 0.034 | 0.741 ± 0.018 | 0.697 ± 0.026 | 0.672 ± 0.024 | 0.728 ± 0.01
10 | FFLDRLVIRLIA | 0.105 ± 0.052 | 0.1487 ± 0.00028 | 0.173 ± 0.0047 | 0.248 ± 0.029 | 0.383 ± 0.0071 | 0.0576 ± 0.024 | 0.0715 ± 0.011 | 0.0735 ± 0.014
11 | LRSVLGWGLFLA | 0.325 ± 0.018 | 0.45 ± 0.033 | 0.494 ± 0.014 | 0.493 ± 0.027 | 0.621 ± 0.0097 | 0.236 ± 0.0088 | 0.208 ± 0.021 | 0.422 ± 0.0078
12 | PCPAPRPPSPSA | 0.435 ± 0.03 | 0.664 ± 0.078 | 0.721 ± 0.05 | 0.653 ± 0.0096 | 0.715 ± 0.0076 | 0.668 ± 0.031 | 0.682 ± 0.023 | 0.694 ± 0.014
13 | TFRVLAFFCRVV | 0.367 ± 0.012 | 0.453 ± 0.0089 | 0.538 ± 0.015 | 0.47 ± 0.03 | 0.616 ± 0.059 | 0.308 ± 0.0053 | 0.286 ± 0.025 | 0.3902 ± 0.0029
14 | CLCFFMSILWWV | 0.4269 ± 0.0011 | 0.4741 ± 0.0038 | 0.498 ± 0.017 | 0.434 ± 0.035 | 0.5222 ± 0.0016 | 0.422 ± 0.015 | 0.374 ± 0.019 | 0.478 ± 0.0048
15 | LYLGCVLFVLFR | 0.234 ± 0.054 | 0.197 ± 0.045 | 0.151 ± 0.024 | 0.216 ± 0.029 | 0.368 ± 0.0098 | 0.273 ± 0.0047 | 0.198 ± 0.024 | 0.312 ± 0.036
16 | SLRKRILCRFEY | 0.511 ± 0.023 | 0.6572 ± 0.0064 | 0.708 ± 0.011 | 0.655 ± 0.012 | 0.7348 ± 0.0056 | 0.368 ± 0.041 | 0.4388 ± 0.0014 | 0.599 ± 0.023
17 | SVLSFGVFCLVG | 0.538 ± 0.13 | 0.553 ± 0.043 | 0.65407 ± 0.00051 | 0.524 ± 0.023 | 0.61 ± 0.0077 | 0.4185 ± 0.0031 | 0.427 ± 0.033 | 0.527 ± 0.013
18 | CGLLSALSCLVF | 0.511 ± 0.02 | 0.507 ± 0.033 | 0.54 ± 0.011 | 0.442 ± 0.019 | 0.5533 ± 0.0036 | 0.4185 ± 0.0022 | 0.45 ± 0.017 | 0.552 ± 0.023
19 | CFLLVSLGILCW | 0.176 ± 0.094 | 0.0312 ± 0.00089 | 0.0425 ± 0.02 | 0.109 ± 0.036 | 0.121 ± 0.003 | 0.0685 ± 0.035 | 0.106 ± 0.034 | 0.0931 ± 0.026
20 | VGRANLSVIRKV | 0.436 ± 0.013 | 0.632 ± 0.016 | 0.733 ± 0.016 | 0.636 ± 0.014 | 0.715 ± 0.019 | 0.243 ± 0.011 | 0.29 ± 0.024 | 0.588 ± 0.013

Row | Sequence | protein stability index (Saccharomyces cerevisiae [1]) | protein stability index (Saccharomyces cerevisiae [2]; [3]) | protein stability index (Saccharomyces cerevisiae [2]; [4]) | protein stability index (Saccharomyces cerevisiae [2]; [5]) | protein stability index (Saccharomyces cerevisiae [2]; [6]) | protein stability index (Saccharomyces cerevisiae [2]; [7]) | protein stability index (Saccharomyces cerevisiae [2]; [8]) | protein stability index (Saccharomyces cerevisiae [2]; [9])
21 | WSCVGLWGRFCC | 0.448 ± 0.036 | 0.663 ± 0.033 | 0.748 ± 0.018 | 0.637 ± 0.011 | 0.76 ± 0.013 | 0.267 ± 0.011 | 0.299 ± 0.0093 | 0.57 ± 0.0094
22 | FLAWSVGILCRV | 0.317 ± 0.018 | 0.228 ± 0.023 | 0.225 ± 0.022 | 0.238 ± 0.036 | 0.351 ± 0.011 | 0.213 ± 0.0026 | 0.224 ± 0.041 | 0.318 ± 0.023
23 | PDCRPPLVRCLL | 0.796 ± 0.03 | 0.9585 ± 0.0082 | 0.902 ± 0.071 | 0.827 ± 0.028 | 0.9164 ± 0.0047 | 0.8334 ± 0.0043 | 0.822 ± 0.035 | 0.936 ± 0.019
24 | RTFPYSALSFVS | 0.457 ± 0.013 | 0.618 ± 0.032 | 0.712 ± 0.013 | 0.652 ± 0.046 | 0.718 ± 0.015 | 0.216 ± 0.022 | 0.235 ± 0.045 | 0.445 ± 0.048
25 | TSLPPSPPPSPT | 0.476 ± 0.025 | 0.682 ± 0.016 | 0.713 ± 0.17 | 0.392 ± 0.044 | 0.563 ± 0.0085 | 0.373 ± 0.014 | 0.392 ± 0.012 | 0.562 ± 0.033
26 | FVMLSFLVSSLP | 0.4255 ± 0.0037 | 0.404 ± 0.006 | 0.489 ± 0.039 | 0.346 ± 0.028 | 0.513 ± 0.006 | 0.3038 ± 0.0018 | 0.34 ± 0.017 | 0.495 ± 0.0055
27 | FFDLSLYSLCLC | 0.378 ± 0.064 | 0.623 ± 0.019 | 0.69 ± 0.059 | 0.466 ± 0.013 | 0.6476 ± 0.0029 | 0.229 ± 0.009 | 0.271 ± 0.029 | 0.4649 ± 0.0011
28 | GVQFRRPLIPIY | 0.445 ± 0.082 | 0.514 ± 0.0065 | 0.4877 ± 0.0027 | 0.358 ± 0.03 | 0.5467 ± 0.0036 | 0.325 ± 0.011 | 0.35 ± 0.025 | 0.517 ± 0.0099
29 | LEGRFLACRGIC | 0.264 ± 0.04 | 0.619 ± 0.028 | 0.719 ± 0.048 | 0.598 ± 0.018 | 0.728 ± 0.02 | 0.144 ± 0.017 | 0.157 ± 0.011 | 0.325 ± 0.02
30 | IMGGLRHRIEVY | 0.352 ± 0.016 | 0.366 ± 0.038 | 0.403 ± 0.048 | 0.273 ± 0.028 | 0.477 ± 0.012 | 0.23 ± 0.0031 | 0.268 ± 0.034 | 0.437 ± 0.0067
31 | PPPPPPPFLFFL | 0.496 ± 0.061 | 0.706 ± 0.018 | 0.795 ± 0.019 | 0.643 ± 0.013 | 0.747 ± 0.013 | 0.458 ± 0.015 | 0.472 ± 0.022 | 0.61 ± 0.013
32 | VSGEWSFLVRVQ | 0.39 ± 0.15 | 0.548 ± 0.026 | 0.573 ± 0.0061 | 0.452 ± 0.025 | 0.61 ± 0.027 | 0.392 ± 0.0066 | 0.411 ± 0.024 | 0.554 ± 0.012
33 | VCILLVAWCLMG | 0.217 ± 0.0097 | 0.168 ± 0.023 | 0.289 ± 0.049 | 0.24 ± 0.022 | 0.384 ± 0.0058 | 0.108 ± 0.02 | 0.124 ± 0.02 | 0.1546 ± 0.00053
34 | VSISLCVLCPVF | 0.349 ± 0.018 | 0.268 ± 0.01 | 0.319 ± 0.016 | 0.258 ± 0.024 | 0.356 ± 0.0076 | 0.2408 ± 0.0018 | 0.261 ± 0.016 | 0.312 ± 0.008
35 | GFVLLCFCCRTW | 0.393 ± 0.004 | 0.28 ± 0.01 | 0.421 ± 0.052 | 0.287 ± 0.032 | 0.4828 ± 0.0044 | 0.2477 ± 0.00056 | 0.277 ± 0.035 | 0.426 ± 0.03
36 | HVPPVFQASLSP | 0.747 ± 0.037 | 0.675 ± 0.072 | 0.7368 ± 0.0055 | 0.662 ± 0.014 | 0.743 ± 0.015 | 0.662 ± 0.011 | 0.667 ± 0.017 | 0.7131 ± 0.0057
37 | LCLLCWIPCSFR | 0.524 ± 0.048 | 0.629 ± 0.017 | 0.62751 ± 0.00045 | 0.451 ± 0.029 | 0.649 ± 0.0077 | 0.486 ± 0.035 | 0.4661 ± 0.0017 | 0.616 ± 0.0074
38 | RLILAIVVSGGL | 0.389 ± 0.0071 | 0.4098 ± 0.0018 | 0.425 ± 0.033 | 0.295 ± 0.034 | 0.495 ± 0.0071 | 0.252 ± 0.015 | 0.305 ± 0.022 | 0.457 ± 0.03
39 | FLFSVVFFFFSL | 0.421 ± 0.066 | 0.368 ± 0.028 | 0.4558 ± 0.0032 | 0.353 ± 0.021 | 0.5154 ± 0.003 | 0.322 ± 0.011 | 0.35 ± 0.025 | 0.4586 ± 0.0045
